The supplement of paper PMC9942255

Test system: Bacillus subtilis DB104 (SP-AmyQ fusion secretion)
Test: AmyQ secretion efficiency, weighted average sort bin (1 = best secretion, 10 = worst) (bin number (weighted average, 1-10)); higher = lower secretion efficiency
Summary of the method: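 Occupied alginate beads were sorted by large-particle flow cytometry into 10 equally populated bins according to green/red fluorescence ratio. Each bead (~65 nL) held fluorescein-starch and about 0.3 cells of a B. subtilis DB104 library expressing mature AmyQ fused to designed signal peptides from the amyE locus, and beads were grown about 13 h at room temperature and stained with nile red before sorting. Bin amplicons were Illumina-sequenced, and the secretion score is the read-frequency-weighted average bin number, normalised to beads per bin, excluding low-abundance sequences.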

Row | Sequence | AmyQ secretion efficiency
1 | MRPVFPLILSAVLFLSCFFGARQTEASASSD | 1.96
2 | MKQFAITLSVLCALILLVPTLLVIPFFHNKEAGASV | 6.58
3 | MHLIRAKGAVCLAVVLIAGCRFNEDQHQAEGENT | 6.02
4 | MKKKLAAGLTASAIVGTTLVVTPAEPATI | 6.62
5 | MKKAKRKRLSVVLVTTVFLVKQQESVAQAKQL | 5.44
6 | MRPVFPLILSAVLFLSCFFGARQTEASDSKR | 2.12
7 | MKRIRIPMTLKRKRKRTIAPLSFASAEEN | 8.12
8 | MSKWMITIAMLILAGIALFVFISPLKSHKT | 5.71
9 | MKKLRKKKKKGLLTVSIASPSFAAEK | 7.52
10 | MKKKLAAGLTASAIVGTTLVVTPQEAATI | 5.9
11 | MKKKSQQQGGVSAVVGSSMAAAPAEAKTI | 7.9
12 | MKKAFILSAAAAVGLFTFGGVQQVSAKEL | 3.11
13 | MKRIRIPMTLALGAALTIAPLSFASYEEN | 6.51
14 | MKVPKTMLLSTAAGLLLSLTATSVSSHYV | 7.63
15 | MGLGKKLSVAVAASFMSLSISLPGLQAAEG | 1.65
16 | MTKKAWFLPLVCVLLISGWLAPAASVSAQTT | 2.17
17 | MKLAKRVSALTPSTTLAITAKVKEL | 6.33
18 | MRKSLITLGLASIVIGTSSFLIPFTSKTASAETL | 2.2
19 | MRPVFPLILSAVLFLSCFEGAEQTEASASKR | 3.25
20 | MKKAFILSAAAAVGLFTFDDDQQASAKEL | 2.77
21 | MKRIRIPMTYTGTAALTIAPLSFASAEEN | 7.36
22 | MKKRLIAPMLLSAASLAFFAMSGSVQAAAY | 4.49
23 | MLKKKWMLMVGLLAGCLAAGGFSYNAFATEN | 4.46
24 | MMKKLFHSTLIVLLFFSFFGVQIHAKKQ | 2.18

Row | Sequence | AmyQ secretion efficiency
25 | MRFTKNVVGFLSVLGLAAVFPLTAQAEKA | 2.41
26 | MKKIWIGMLAAAVLLLMVPKVSLRDAA | 4.91
27 | MKRRTRYKKQVVGILLSLAFVLFVFSFSERHE | 6.68
28 | MRGKSAKRLSLIMLIAGFLISFSFQM | 7.38
29 | MAIIIAIIAAVIVIAALITFNVWNASPG | 7.05
30 | MRRRWRSLALCGLALTLAPCAQAAEP | 2.05
31 | MKKWMITIAMTMLILAGIALFVFISPLKSHKT | 1.1
32 | MKKLLAAGIIGLLTVSIASPSFARRK | 6.83
33 | MRNLTKTSLLLAGLCTAAQMVFVTHWSAEES | 8.27
34 | MKLKKRVSMFLVALTMCGGLFVTPFKAVKT | 6.39
35 | MFKKLLLATSALTFSLSLVLDAKAQEV | 2.17
36 | MKKTTNVLMAFIICLSLILSVLAAPPSGAKAESV | 2.36
37 | MKWMCSICCAAVLLAGGAPTFAQAEAV | 3.68
38 | MMIMQCVICLSLLVFGTTAAHAEET | 2.38
39 | MPYLKRVLLLLVTGLFMSLAVTATASAQTG | 1.16
40 | MKRLLSTLLIGIMLLTFAPSAFAAED | 2.37
41 | MRPVFPLILSAVLFLSCFFGARQTEASASED | 3.13
42 | MFNRLFRVCFLAALIMTLPNSVYAQKP | 2.44
43 | MKRLFMKASLVLFAVVFVFAVKGAIAKAETH | 2.52
44 | MTMLLAAGIIGLLTVSIASPSFAAEK | 5.35
45 | MKSKWMSGLLLVAVGFSFTQVMSHAGET | 6.67
46 | MKKKQVMLALTAAAGLGLTALHSAPAGKAAPL | 5.58
47 | MKQGKFSVFLILLLMLTLVVAPKEKAEHASS | 4.93
48 | MKKKLAAGLTASAIVGTTLVVTPAEDATI | 6.33

Row | Sequence | AmyQ secretion efficiency
49 | MKWMCSICCAAVLLAGGALQAEAV | 2.66
50 | MKKGIIRFLLVSFVLFFALSTGSTGVQAAPA | 1.88
51 | MFLRKILLSSALSLGMLVSAAPVLATSS | 2.2
52 | MRKKLKWLSFLLGFIILLFLFKYQASNNDS | 7.34
53 | MRNLTKYTTSKGGLCTAAQMVFVTHASAEES | 7.66
54 | MLKKVILAAFILVGSTLGRKSFSSKASAKHV | 6.14
55 | MKRTWNVCLTALLSVLLVAGSVPFHMEAKKP | 2.19
56 | MRKTIFAFLTGLMMFGTITAPSASPD | 5.98
57 | MKRLLLGILCSAAVFLIGAPSRALGAEV | 2.5
58 | MKKTIMSFVAVAALSTTAFGAHASYKEI | 7
59 | MRFTKTRGQRQVLGLAAVFPLTAQAEKA | 7.51
60 | MKRNLTITMFILVLSFLSIIVAYPIQTNASPM | 5.49
61 | MRNLTKTSLLLAGLCTAAQMVFVTHASAATD | 2.35
62 | MKSKGSIMACLILFSFTITDEINTETISAFSN | 6.09
63 | MKKARRVLLSLGLVFGFSYGAGHVAEAKTK | 2.43
64 | MSGSTLIILALFVLSLGLLSFMVTPVSAASK | 4.39
65 | MLKRTSFVSSLFISSAVLLSILTPDGQAHAQSA | 1.39
66 | MRSYIKVLTMCFLGLILFVVIATVSAIPTALADNS | 2.02
67 | MGTTIVAGLAVSAVVGSSMAAAPAEAKTI | 6.13
68 | MKRLRRKRKKGIMLLTFAPSAFAKQD | 7.07
69 | MILITINIITMFIAAAVISLTGTAEAAEK | 4.83
70 | MKRIRIPMTLALGAALTIAPLSFKSAEEN | 6.9
71 | MKKLVLCVSILAVILSGVTVALTQLS | 3.8
72 | MRSYIKVLTMCFLGLILFVPTALAANR | 2.08

Row | Sequence | AmyQ secretion efficiency
73 | MKKAAAVLLSLGLVFGFSYGAGHVQEAKTK | 7.17
74 | MKRFLIGAGVAAVILFSITFSGWFIADHQTHSQEM | 5.28
75 | MKIRKILLSSALSFGMLKDKVPALAAGT | 6.36
76 | MTMLRKIIGWILLLCIIPLFAFTVIASQKEV | 6.87
77 | MNFKKTVVSALSISALALRKRRKRASAHEI | 7.78
78 | MKLSVKIAGVLTVAAAAMTAKMYPTAKGN | 5.7
79 | MKLAKRNFMISMVSALTPSTTLAITAKAKEL | 7.41
80 | MKRTTNLTMLCLWFTVFSLFLVLLPGKALGAVD | 4.04
81 | MPIKKKVMMCLAVTLVFGSMRKRRRKNSGGFKE | 8.69
82 | MRRVCFLAALIMAFTLPNSVYAQKP | 2.21
83 | MKKIVSILFMFGLVMGFSQFQPSTVFAAKK | 2.86
84 | MKRKLLSSLAISALSLGLLVRKRTASFAAES | 6.75
85 | MLTKRLLTIYIMLLGLIAWFPGAAQAASK | 1.8
86 | MKKAFILSAAAAVGLFTFIAVSVASAKEL | 3.67
87 | MKRTWNVCLTALLSVLLVAGSVTLVAAPFHAEAKKP | 2.5
88 | MKKIMSAFVGMVLLTIFCKKRKRRASAAYD | 7.21
89 | MKKKRMSFVAVAALSTTAFGAHASAKEI | 4.12
90 | MKTKTLFIFSAILTLSIFAPNEMFAQTA | 1.9
91 | MRFTKVVGFLSVLGLAAVFPLTVQAEKA | 3.18
92 | MSSSVKIAGVLTVAAAAMTAKMYATAKGN | 4.6
93 | MKSKGSIMACLILFSFTITTFINTETTSAFSN | 5.51
94 | MKVCQKSIVRFLVSLIIGTFVIRKKFMANAQSD | 6.59
95 | MMKKGLLAGALTATVLFIGTCAVDVPGIISPKTAEAASQ | 1.04
